The text below walks through data of patent US20250032576A1, “CNP Therapy” (BIOMARIN PHARMACEUTICAL INC., priority 2021, published 2025).

Where “and” joins values, the source holds several entries; their conditions need not be identical. Equal values may be shown once. Read-outs that look alike come from different tables or passages of the source. No end group written: not given here.

Assay [1] relates to lumbar vertebral nppc expression, plasma NTproCNP. As to conditions: cited from earlier work.
Assay [2] deals with mice deficient in Nf1 in type II collagen producing cells. The conditions noted are these: daily injections; cited from earlier work.
Assay [3] deals with mouse model of Cardiofaciocutaneous syndrome using a Braf mutation (p.Q241R). The conditions noted are these: in vivo; cited from earlier work.
Another assay relates to plasma NTproCNP. The conditions noted are these: short non Ach children starting daily HGH, day 21; cited from earlier work.
The target of assay [4] is NPR2 variant Ile494Ser (human) (UniProt P20594). Briefly: cell-based or functional assay.
In assay [5] the target is NPR2 variant Glu389Asp (human) (UniProt P20594). Briefly: cell-based or functional assay.
Assay [6] deals with NPR2 variant Arg776Trp (human) (UniProt P20594). Description: cell-based or functional assay.
Assay [7] addresses NPR2 variant Arg562Gln (human) (UniProt P20594). Briefly: cell-based or functional assay.
Assay [8] has as its target NPR2 variant Gly209Val (human) (UniProt P20594). Briefly: cell-based or functional assay.
Assay [9] has as its target NPR2 variant Gly917Arg (human) (UniProt P20594). Description: cell-based or functional assay.
Assay [10] deals with NPR2 variant Pro301Ser (human) (UniProt P20594). Description: cell-based or functional assay.
Assay [11] deals with NPR2 variant Glu359Ala (human) (UniProt P20594). Description: cell-based or functional assay.
Assay [12] concerns the target NPR2 variant Thr377Asn (human) (UniProt P20594). Briefly: cell-based or functional assay.
Assay [13] concerns the target NPR2 variant Glu77Lys (human) (UniProt P20594). Briefly: cell-based or functional assay.
For assay [14], the target named is NPR2 variant Arg601Ser (human) (UniProt P20594). Description: cell-based or functional assay.
Assay [15] concerns the target NPR2 variant Ser522Pro (human) (UniProt P20594). Description: cell-based or functional assay.
The target in assay [16] is NPR2 variant Arg263His (human) (UniProt P20594). Description: cell-based or functional assay.
In assay [17] the target is NPR2 variant Thr297Met (human) (UniProt P20594). Description: cell-based or functional assay.
In assay [18] the target is NPR2 variant Lys1006Thr (human) (UniProt P20594). Briefly: cell-based or functional assay.
Assay [19] has as its target NPR2 variant Lys480Asn (human) (UniProt P20594). Briefly: cell-based or functional assay.
The target in assay [20] is NPR2 variant Val553Leu (human) (UniProt P20594). Briefly: cell-based or functional assay.
For assay [21], the target named is NPR2 variant Leu956Gln (human) (UniProt P20594). Briefly: cell-based or functional assay.
Assay [22] deals with NPR2 variant Val965Asp (human) (UniProt P20594). Briefly: cell-based or functional assay.
The target of assay [23] is NPR2 variant Gly21Arg (human) (UniProt P20594). Description: cell-based or functional assay.
Assay [24] has as its target NPR2 variant Arg957Cys (human) (UniProt P20594). Briefly: cell-based or functional assay.
The target of assay [25] is NPR2 variant Thr907Met (human) (UniProt P20594). Description: cell-based or functional assay.
For assay [26], the target named is NPR2 variant Ala48Ser (human) (UniProt P20594). Description: cell-based or functional assay.
Assay [27] has as its target NPR2 variant Lys367Glu (human) (UniProt P20594). Description: cell-based or functional assay.
In assay [28] the target is NPR2 variant Lys629Arg (human) (UniProt P20594). Description: cell-based or functional assay.
Assay [29] concerns the target NPR2 variant His552Arg (human) (UniProt P20594). Briefly: cell-based or functional assay.
For assay [30], the target named is NPR2 variant HIS508Asp (human) (UniProt P20594). Briefly: cell-based or functional assay.
Assay [31] deals with NPR2 variant Glu727Gln (human) (UniProt P20594). Description: cell-based or functional assay.
The target in assay [32] is NPR2 variant Ala59Thr (human) (UniProt P20594). Description: cell-based or functional assay.
Assay [33] concerns the target NPR2 variant Leu1009Val (human) (UniProt P20594). Description: cell-based or functional assay.
Assay [34] deals with NPR2 variant Trp42Arg (human) (UniProt P20594). Briefly: cell-based or functional assay.
A further assay relates to NPR2. Description: cGMP catchpoint assay of NPR2 variants in transfected HEK293 cells treated with 20 nM CNP. The format is cell-based. Set-up: key to Lable: loss-of-function (LoF); Gain-of-function (GoF). Summed up: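 HEK293 cells transfected with NPR2 variant constructs; 3 days later stimulated with 20 nM CNP plus […] IBMX in serum-free DMEM. cGMP by competitive ELISA against a standard curve, normalized to RedLuc transfection control and to WT = 1; mean of ≥3 experiments, 4 replicates each.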

Consider “CNP 53: active 53-amino acid peptide generated from pro-CNP by furin cleavage (DLRVDTKSRAAWARLLQEHPNARKYKGANKKGLSKGCFGLKLDRIGSMSGLGC; ends and bridges not checked; cysteine pairing not given here; UniProt P23582 74-126, looked up)”, for which the “lumbar vertebral nppc expression” value in assay [1] (3 days continuous high dose intravenous infusion) is listed as “significantly reducing”. Also, the “plasma NTproCNP” value in assay [1] (females (n=6)) is on record as “small decline”; in assay [1] (male rats (n=6)), “did not reduce”.
As to “C-type natriuretic peptide (GLSKGCFGLKLDRIGSMSGLGC; ends and bridges not checked; cysteine pairing not given here; UniProt P23582 105-126, looked up) [CNP, small, single chain peptide having a 17-amino acid loop structure at the C-terminal end]”, in [2], the ERK phosphorylation result was “decreased ERK phosphorylation” and the short stature entry is listed as “corrected the short stature”. The body length result in assay [3] is given as “increases in body length”.
“Human Growth Hormone [Human Growth Hormone (HGH)]”: in the assay on plasma NTproCNP, the “increase in NTproCNP, delta” value was 22% and the “increase in NTproCNP, mean” value is on record as 11 pmol/L.
On to “C-type natriuretic peptide (CNP) (from UniProt P23582 105-126) (ligand)”, for which the average phenotype (cGMP, normalized to RedLuciferase, WT set to 1) (relative to WT = 1) was 0.0364 in [4]; 0.0708 in assay [5]; 0.0131 in [6]; 1.55 and 1.63 in assay [7]; 0.0886 in assay [8]; 0.0171 in [9]. The average phenotype (cGMP, normalized to RedLuciferase, WT set to 1) (relative to WT = 1) in [10] worked out at 0.0848; in assay [11], 3; in [12], 0.0106; in assay [13], 0.0499; in [14] it was 0.0595; in [15], 0.0567. Also, the average phenotype (cGMP, normalized to RedLuciferase, WT set to 1) (relative to WT = 1) amounted to 1.86 in [16]; 0.0302 in assay [17]; 0.0551 in assay [18]; 1.69 in [19]; 1.52 in assay [20]; 0.0243 in [21]. The average phenotype (cGMP, normalized to RedLuciferase, WT set to 1) (relative to WT = 1) in assay [22] is 0.0158; in assay [23], 2.78; in assay [24], 0.0295 and 0.0155; in [25], 0.0146; in assay [26] it was 0.0679; in assay [27], 0.0144. The average phenotype (cGMP, normalized to RedLuciferase, WT set to 1) (relative to WT = 1) in [28] stood at 1.49; in [29], 1.79; in assay [30] it was 1.74; in [31], 1.7; in [32], 3.74; in assay [33] it was 0.0847. In [34], the average phenotype (cGMP, normalized to RedLuciferase, WT set to 1) (relative to WT = 1) was found to be 0.0288.

B1: Thr907Met: NPR2 protein-altering variant, expression construct transfected into HEK293 cells (protein)
chain: RNLTLAVVLPEHNLSYAWAWPRVGPAVALAVEALGRALPVDLRFVSSELEGACSEYLAPLSAVDLKLYHDPDLLLGPGCVYPAASVARFASHWRLPLLTAGAVASGFSAKNDHYRTLVRTGPSAPKLGEFVVTLHGHFNWTARAALLYLDARTDDRPHYFTIEGVFEALQGSNLSVQHQVYAREPGGPEQATHFIRANGRIVYICGPLEMLHEILLQAQRENLTNGDYVFFYLDVFGESLRAGPTRATGRPWQDNRTREQAQALREAFQTVLVITYREPPNPEYQEFQNRLLIRAREDFGVELGPSLMNLIAGCFYDGILLYAEVLNETIQEGGTREDGLRIVEKMQGRRYHGVTGLVVMDKNNDRETDFVLWAMGDLDSGDFQPAAHYSGAEKQIWWTGRPIPWVKGAPPSDNPPCAFDLDDPSCDKTPLSTLAIVALGTGITFIMFGVSSFLIFRKLMLEKELASMLWRIRWEELQFGNSERYHKGAGSRLTLSLRGSSYGSLMTAHGKYQIFANTGHFKGNVVAIKHVNKKRIELTRQVLFELKHMRDVQFNHLTRFIGACIDPPNICIVTEYCPRGSLQDILENDSINLDWMFRYSLINDLVKGMAFLHNSIISSHGSLKSSNCVVDSRFVLKITDYGLASFRSTAEPDDSHALYAKKLWTAPELLSGNPLPTTGMQKADVYSFGIILQEIALRSGPFYLEGLDLSPKEIVQKVRNGQRPYFRPSIDRTQLNEELVLLMERCWAQDPAERPDFGQIKGFIRRFNKEGGTSILDNLLLRMEQYANNLEKLVEERTQAYLEEKRKAEALLYQILPHSVAEQLKRGETVQAEAFDSVTIYFSDIVGFTALSAESTPMQVVTLLNDLYTCFDAIIDNFDVYKVEMIGDAYMVVSGLPGRNGQRHAPEIARMALALLDAVSSFRIRHRPHDQLRLRIGVHTGPVCAGVVGLKMPRYCLFGDTVNTASRMESNGQALKIHVSSTTKDALDELGCFQLELRGDVEMKGKGKMRTYWLLGERKGPPGLL
In the case of B1, the average phenotype in the assay with NPR2 (cGMP normalized to RedLuciferase and to WT = 1, HEK293, 20 nM CNP, 0.4 nM IBMX, at least 3 repeat experiments with 4 replicates each) is 0.01456. Besides, the Lable entry with NPR2 (high-confidence variant class) was “LoF”.
